Source: paper PMC6635489

How the values were obtained:
Conditions in all cases: glycan lost; control: wild type GluK3
[1] = two-pulse 30 mM glutamate protocol, whole-cell patch clamp
[2] = surface biotinylation, anti-GluR6/7 blot, HEK293
[3] = whole-cell patch clamp, 30 mM glutamate, HEK293
[4] = whole-cell dose-response, 30 µM-30 mM glutamate

B1: GluK3: S404A (protein)
parent chain: MTAPWRRLRSLVWEYWAGFLVCAFWIPDSRGMPHVIRIGGIFEYADGPNAQVMNAEEHAFRFSANIINRNRTLLPNTTLTYDIQRIHFHDSFEATKKACDQLALGVVAIFGPSQGSCTNAVQSICNALEVPHIQLRWKHHPLDNKDTFYVNLYPDYASLSHAILDLVQSLKWRSATVVYDDSTGLIRLQELIMAPSRYNIRLKIRQLPIDSDDSRPLLKEMKRGREFRIIFDCSHTMAAQILKQAMAMGMMTEYYHFIFTTLDLYALDLEPYRYSGVNLTGFRILNVDNAHVSAIVEKWSMERLQAAPRAESGLLDGVMMTDAALLYDAVHIVSVCYQRASQMTVNSLQCHRHKPWRFGGRFMNFIKEAQWEGLTGRIVFNKTSGLRTDFDLDIISLKEDGLEKVGVWSPADGLNITEVAKGRGPNVTDSLTNRSLIVTTLLEEPFVMFRKSDRTLYGNDRFEGYCIDLLKELAHILGFSYEIRLVEDGKYGAQDDKGQWNGMVKELIDHKADLAVAPLTITHVREKAIDFSKPFMTLGVSILYRKPNGTNPSVFSFLNPLSPDIWMYVLLAYLGVSCVLFVIARFSPYEWYDAHPCNPGSEVVENNFTLLNSFWFGMGSLMQQGSELMPKALSTRIIGGIWWFFTLIIISSYTANLAAFLTVERMESPIDSADDLAKQTKIEYGAVKDGATMTFFKKSKISTFEKMWAFMSSKPSALVKNNEEGIQRTLTADYALLMESTTIEYITQRNCNLTQIGGLIDSKGYGIGTPMGSPYRDKITIAILQLQEEDKLHIMKEKWWRGSGCPEEENKEASALGIQKIGGIFIVLAAGLVLSVLVAVGEFIYKLRKTAEREQRSFCSTVADEIRFSLTCQRRLKHKPQPPMMVKTDAVINMHTFNDRRLPGKDSMSCSTSLAPVFP
[1]
  other: time constant of recovery from desensitization, other: tau_rec: decreases, 0.5 vs 0.9
[2]
  localisation_or_trafficking: no change
[3]
  other: desensitization time constant, other: mean weighted tau_des: no change, 4.5 ± 0.3 vs 3.8 ± 0.5
[4]
  other: glutamate EC50 of channel current, EC50: no change, 10.3 vs 9.5
